This is an account of results in article PMC3792052, “Structural Analysis of Intermolecular Interactions in the Kinesin Adaptor Complex Fasciculation and Elongation Protein Zeta 1/ Short Coiled-Coil Protein (FEZ1/SCOCO)” (PLoS ONE, 2013).

Data set [1] has as its target 6xHis-FEZ1 (1-392) (human) (UniProt Q99689). Description: SAXS; complex formed by lysing the two E. coli pellets together, two-step co-affinity purification (6xHis, then GST); purified complex at 1.10 and 0.34 mg/mL in PBS, 20 °C; mass from I(0) against BSA.
Data set [2] deals with the molecule itself. Described as above.

In turn, GST-SCOCO (2-82) (natural protein) returned a stoichiometry N (GST-SCOCO per 6xHis-FEZ1 (2:2)) in data set [1] of 1.

B1: 6xHis-FEZ1 (1-392) (natural protein, human, UniProt Q99689 1-392, looked up)
chain: MEAPLVSLDEEFEDLRPSCSEDPEEKPQCFYGSSPHHLEDPSLSELENFSSEIISFKSMEDLVNEFDEKLNVCFRNYNAKTENLAPVKNQLQIQEEEETLQDEEVWDALTDNYIPSLSEDWRDPNIEALNGNCSDTEIHEKEEEEFNEKSENDSGINEEPLLTADQVIEEIEEMMQNSPDPEEEEEVLEEEDGGETSSQADSVLLQEMQALTQTFNNNWSYEGLRHMSGSELTELLDQVEGAIRDFSEELVQQLARRDELEFEKEVKNSFITVLIEVQNKQKEQRELMKKRRKEKGLSLQSSRIEKGNQMPLKRFSMEGISNILQSGIRQTFGSSGTDKQYLNTVIPYEKKASPPSVEDLQMLTNILFAMKEDNEKVPTLLTDYILKVLCPT
notes: Predicted mass of the tagged protein printed as 48.8 KDa; also called fasciculation and elongation protein zeta 1; source: for SAXS cells lysed together with GST-SCOCO cells and co-purified (HiTrap chelating, then GST-Trap)
For orientation: stoichiometry N means the number of molecules, sites or subunits per partner or assembly. In the case of B1, the “stoichiometry N” value in data set [2] was determined as 2.
